Data as given in US20240239875A1 (published 2024).
Substitutions are numbered along the chain they refer to.

B1: 4-K13-A (antibody, V domains shown)
VH: QAYLQQSGAELVRPGASVKMSCKASGYTFTSYTVHWVKQTPRQGLEWIGAIYPGNVDTSYNQNFKGKATLTVDKSSSTAYMQLSSLTSEDSAVYFCARDGYYAMDYWGQGTSVTVSS
VL: not shown
B2: 6-L8-A (antibody, V domains shown)
VH: EVQLQQSVAELVRPGASVKLSCTPSGFNIKNTYMHWMKQRPEQGLEWIGRINPANDDTKYAPKFQDKATITADTSSNTAYLQLSSLTSEDTAIYYCVYDVRWYFDVWGTGTTVTVSS
VL: DVVMTQTPLSLPVSLGDQASISCRSSQGLVHSNGNTYLHWYLQKPGQSPKLLIYKVSNRFSGVPDRFSGSGSGTDFTLKISRVEAEDLGVYFCSQSTHVPPTFGAGTKLELK
B3: 9-P9-A (antibody, V domains shown)
VH: DVKLVESGEGLVKPGGSLKLSCAASGFSFSNFGMSWVRQTPEKRLEWVAYISSGGDYIYYADTVKGRFTISRDNARNTLYLQMSSLKSEDTAIYYCTRGYFDYWGQGTTLTVSS
VL: DVLMTQTPLSLPVSLGDQASISCRSSQSIVHSNGNTYLEWYLQKPGQSPKLLIYTVSNRFSGVPDRFSGSGSGTDFTLKISRVEAEDLGVYYCFQGSHVPYTFGGGTKLEMR
B4: 4-C3-A (antibody, V domains shown)
VH: EVQLQQSGPELVKPGASVKISCKASGYSFTGYYMHWVKQSHGNILDWIGYIYPYNGVSSYNQKFKGKATLTVDKSSSTAYMELRSLTSEASAVYYCARAYGSSYDYYYGLDYWGQGTSVTVSS
VL: DIVLTQSPASLAVSLGQRATISCKASQSVDYDGAGYMNWYQQKPGQPPKLLISSASNLQSGIPARFSGSGSGTDFTLNIHPVEEEDAATYYCQQSNDDPYTFGGGTKLEIK
B5: 3-E13-A (antibody, V domains shown)
VH: EVQLQQSGPELVKPGASVKMSCKASGYTFTDYNIHWVKQSHGKSLEWIGYINPNNGGTDYNQKFQGKATLTVNKSSSTAYMELRSLTSEDFAVYYCARGGFYGNYGAYYGMDFWGQGTSVTVSS
VL: DIQMTQSPASLSASVGETVTITCRTSENIYSHLAWYQQTQGKSPQLLVYNAKTLAEGVPSRFSGSGSGTHFSLKINSLQPEDFGSYYCQHHYGIPPEFGGGTKLEIK
B6: 6-C19-A (antibody, V domains shown)
VH: B5 VH with N73D, F91S, A107S
VL: B5 VL with Q45H, H70Q, Y87F
B7: 9-L13-A (antibody, V domains shown)
VH: QVQLKESGPGLVAPSQSLSITCTVSGFSLTSYAISWVRQPPGKGLEWLGLIWTGGGTNYNSALKSRLSISKDNSKSQIFLKMNSLQTDDTARYYCARGPPLIYYGDLYYFDYWGQGTTLTVSS
VL: DIQMTQSPSSLSASLGGKVTITCKASQDINKYIAWYQHKPGKGPRLLIHYTSTLQPGIPSRFSGSGSGRDYSFSISNLEPEDIATYYCLQYDNLWTFGGGTKLEIK
B8: 8-N24-A (antibody, V domains shown)
VH: QVQLQQPGAELVKPGASVKVSCKASGYTFTSYWMHWVKQRPGQGLEWIGRIHPSDSDTNYYQKFKGKATLSVDKSSSTAYMQLSSLTSEDSAVYYCAIPLYSYDNSGGYYPMDYWGQGTSVTVSS
VL: DIVMTQSQKFMSTSVGDRVTITCKASQNVRTAVAWYQQKPGQSPKKLIYLASNRHTGVPDRFTGSGSGTDFTLAISNVQSEDLADYFCLQHWNYPFTFGSGTRLEIK

Target: T1, SARS-CoV-2 prefusion stabilized trimer protein (WIV02 isolate spike protein) (UniProt P0DTC2 14-1213)
Test: ELISA

In order of falling EC50:
1. B7  8.45 nM
2. B2  7.46 nM
3. B4  0.54 nM
4. B6  0.49 nM
5. B1  0.14 nM
6. B5  0.08 nM
7. B3  0.05 nM

Target: SARS-CoV-2 receptor binding domain (UniProt P0DTC2 319-541)
Test: ELISA

In order of rising EC50:
1. B1  0.15 nM
2. B7  26.9 nM

Target: SARS-CoV-2 S2 domain (UniProt P0DTC2 686-1213)
Test: ELISA

In order of rising EC50:
1. B3  0.04 nM
2. B5  0.05 nM
3. B6  0.39 nM
4. B8  4.43 nM
5. B4  81.1 nM
6. B1  87 nM

Target: SARS-CoV-1 spike protein (SARS-CoV-1, UniProt P59594 14-1195)
Test: ELISA

In order of falling EC50:
1. B8  59 nM
2. B2  43.5 nM
3. B7  6.31 nM
4. B6  1.98 nM
5. B5  0.16 nM
6. B3  0.06 nM

Target: T1, SARS-CoV-2 prefusion stabilized trimer …
Test: ELISA
Remark: another data set of the same source

In order of rising EC50:
1. B3  0.05 nM
2. B4  0.08 nM
3. B5  0.08 nM
4. B6  0.48 nM
5. B2  6.8 nM
6. B7  8.18 nM
